The results in this text go back to publication doi:10.64898/2025.12.11.692727, “Nucleophagy removes cytotoxic trapped PARP1” (bioRxiv, 2025).

The target of this assay is T1, PARP1, recombinant, full length (printed as GFP-PARP1 in the results) (UniProt P09874 1-1014).
T1 construct: Full-length PARP1 cloned into the NcoI and BamHI sites of the pNIC28 vector; The results call the purified protein GFP-PARP1; the methods describe full-length PARP1 in pNIC28 without naming GFP; source: E. coli expression system, purified
In words: pull-down; in vitro; PARP1 (2.5 µM) loaded on PARP1-trap beads, TEX264 (2.5 µM) added, 2 hrs at 4°C; 50 mM HEPES pH 7.4, 500 mM NaCl, 0.01% Triton X-100, 1 mM TCEP; stringent washes with 0.1% Triton X-100; Western blot. The conditions noted are these: both partners purified.

T1 sequence (P09874 whole entry): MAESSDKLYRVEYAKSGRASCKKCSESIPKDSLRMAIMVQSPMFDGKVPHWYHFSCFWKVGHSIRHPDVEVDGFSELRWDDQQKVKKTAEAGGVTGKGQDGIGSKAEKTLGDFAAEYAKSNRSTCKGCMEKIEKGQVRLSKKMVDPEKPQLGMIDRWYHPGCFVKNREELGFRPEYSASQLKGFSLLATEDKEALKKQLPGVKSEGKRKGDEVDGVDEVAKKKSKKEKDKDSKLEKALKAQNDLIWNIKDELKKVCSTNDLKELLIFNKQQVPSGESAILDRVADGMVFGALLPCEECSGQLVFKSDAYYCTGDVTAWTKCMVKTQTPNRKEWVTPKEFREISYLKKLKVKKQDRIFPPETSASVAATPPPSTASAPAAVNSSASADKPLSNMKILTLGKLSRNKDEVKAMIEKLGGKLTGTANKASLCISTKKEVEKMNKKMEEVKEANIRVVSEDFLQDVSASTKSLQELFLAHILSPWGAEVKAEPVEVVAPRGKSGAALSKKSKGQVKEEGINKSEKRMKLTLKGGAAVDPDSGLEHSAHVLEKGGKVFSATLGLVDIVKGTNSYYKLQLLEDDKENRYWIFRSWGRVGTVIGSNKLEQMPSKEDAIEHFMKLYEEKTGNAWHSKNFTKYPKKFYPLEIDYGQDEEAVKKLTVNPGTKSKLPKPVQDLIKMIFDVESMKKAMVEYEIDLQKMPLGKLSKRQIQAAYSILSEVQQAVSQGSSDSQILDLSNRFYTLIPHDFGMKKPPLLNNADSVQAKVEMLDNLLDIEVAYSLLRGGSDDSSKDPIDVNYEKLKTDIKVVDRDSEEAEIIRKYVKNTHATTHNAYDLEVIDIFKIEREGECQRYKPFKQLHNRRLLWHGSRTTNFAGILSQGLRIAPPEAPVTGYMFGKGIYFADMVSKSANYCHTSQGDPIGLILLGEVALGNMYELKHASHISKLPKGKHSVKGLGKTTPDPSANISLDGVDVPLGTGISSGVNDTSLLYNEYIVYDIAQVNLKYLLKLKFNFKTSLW

B1: TEX264 C-terminal half (186-313), recombinant (domain or fragment, UniProt Q9Y6I9 186-313, looked up)
chain: RQGDFYVPEMKETEWKWRGLVEAIDTQVDGTGADTMSDTSSVSLEVSPGSRETSAATLSPGASSRGWDDGDTRSEHSYSESGASGSSFEELDLEGEGPLGESRLDPGTEPLGTTKWLWEPTAPEKGKE
notes: The range 186-313 of the methods is tied to the 'C-terminal half' of the results by its position; source: E. coli expression system, purified
With B1, the binding result is “binds”.
